# From patent US20240067758A1 (UCB, published 2024)
# Where “and” joins values, the source holds several entries; their conditions need not be identical. Equal values may be shown once.
# T1: Human IL22 (human, UniProt Q9GZX6 34-179)
# T1 sequence: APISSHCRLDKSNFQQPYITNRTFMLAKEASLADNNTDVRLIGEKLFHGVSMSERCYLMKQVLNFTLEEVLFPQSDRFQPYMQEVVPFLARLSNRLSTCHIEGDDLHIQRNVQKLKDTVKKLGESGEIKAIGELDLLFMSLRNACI
# T2: Mouse IL22 (mouse, UniProt Q9JJY9 34-179)
# T2 sequence (looked up): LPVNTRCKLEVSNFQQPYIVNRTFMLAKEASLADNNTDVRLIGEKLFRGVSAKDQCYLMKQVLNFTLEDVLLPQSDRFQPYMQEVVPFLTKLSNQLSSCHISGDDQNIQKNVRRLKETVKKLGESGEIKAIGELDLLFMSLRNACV
# T3: Cynomolgus IL22 (cynomolgus, UniProt G7PHZ7 34-179)
# T3 construct: also called Cyno IL22; Cyno IL-22
# T3 sequence: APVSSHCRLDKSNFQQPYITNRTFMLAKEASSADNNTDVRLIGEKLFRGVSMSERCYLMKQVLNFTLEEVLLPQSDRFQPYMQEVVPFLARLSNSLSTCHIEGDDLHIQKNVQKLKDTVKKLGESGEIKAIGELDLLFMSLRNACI
# Columns and labels:
# Human IL13 [1] = molecular target: T4, Human IL13 (human, UniProt P35225 35-146, limits assumed); assay: cell-based or functional assay
# Human IL22 [2] = molecular target: T1, Human IL22; assay: cell-based or functional assay
# Human IL13 [3] = molecular target: T4, Human IL13; assay: cell-based or functional assay; remark: listed apart in the source
# Human IL22 [4] = molecular target: T1, Human IL22; assay: cell-based or functional assay; remark: listed apart in the source
# Human IL13 [5] = molecular target: T4, Human IL13; assay: cell-based or functional assay; remark: listed apart in the source
# Human IL13 [6] = molecular target: T4, Human IL13; assay: cell-based or functional assay; remark: listed apart in the source
# Human IL22 [7] = molecular target: T1, Human IL22; assay: cell-based or functional assay; remark: listed apart in the source
# Human IL13 [8] = molecular target: T4, Human IL13; assay: cell-based or functional assay; remark: listed apart in the source
# Human IL22 [9] = molecular target: T1, Human IL22; assay: cell-based or functional assay; remark: listed apart in the source
# Human IL22 [10] = molecular target: T1, Human IL22; assay: SPR (Biacore); Fab variant, human IL22
# Human IL22 [11] = molecular target: T1, Human IL22; assay: SPR Biacore 8K; Fab captured on anti-human F(ab')2, human IL22 titrated 617 pM-50 nM; single experiment
# Procedure: The assay was run on Biacore 8K instrument (GE Healthcare) and BIA (Biomolecular Interaction Analysis) was performed using Biacore 8000 evaluation software Affinipure Goat anti-human IgG-F(ab′)2 fragment specific (Jackson ImmunoResearch) was immobilized on a CM5 Sensor Chip via amine coupling chemistry to a capture level of ˜5000 response units (RUs). HBS-EP+ buffer (10 mM HEPES pH 7.4, 0.15 M NaCl, 3 mM EDTA, 0.05% Surfactant P20, GE Healthcare) was used as the running buffer with a flow rate of 10 μL/min.
# The surface was generated by 2×10 μL injections of 50 mM HCl, interspersed by a 5 μL injection of 5 mM NaOH at flowrate of 10 μL/min. Background subtraction binding curves were analyzed using the Insight evaluation software following standard procedures. Kinetic parameters were determined from the fitting algorithm.
# Human IL22 [12] = molecular target: T1, Human IL22; assay: SPR (Biacore); Fab variant, human IL22; remark: listed apart in the source
# Human IL22 [13] = molecular target: T1, Human IL22; assay: SPR
# Mouse IL22 = molecular target: T2, Mouse IL22; assay: SPR Biacore T200; Fab captured on anti-rabbit F(ab')2, IL22 titrated 0.6-50 nM
# Procedure: (§1) HBS-EP+ buffer (10 mM HEPES pH 7.4, 0.15 M NaCl, 3 mM EDTA, 0.05% Surfactant P20, GE Healthcare) was used as the running buffer with a flow rate of 10 μL/min.
# (§2) The surface was generated by 2×10 μL injection of 50 mM HCl, interspersed by a 10 μL injection of 5 mM NaOH at flowrate of 10 μL/min. Background subtraction binding curves were analyzed using the Biacore T200 evaluation software following standard procedures. Kinetic parameters were determined from the fitting algorithm.
# Human IL22 [14] = molecular target: T1, Human IL22; assay: as above
# Procedure: as §1, §2
# Cynomolgus IL22 = molecular target: T3, Cynomolgus IL22; assay: as above
# Procedure: as §1, §2
# Human IL22 [15] = molecular target: T1, Human IL22; assay: SPR (Biacore); human IL22
binder,measurement,setting,value
"IL13H/IL22K knob in hole bispecific (bispecific antibody, human IgG4 S228P, kappa) heavy 1: not shown light 1: AVQLTQSPSSLSASVGDRVTITCQASEDIYTNLAWYQQKPGKAPKLLIYWASTLASGVPSRFSGSGSGTDFTLTISSLQPEDFATYYCQASVYGNAADSRYTFGGGTKVEIKRTVAAPSVFIFPPSDEQLKSGTASVVCLLNNFYPREAKVQWKVDNALQSGNSQESVTEQDSKDSTYSLSSTLTLSKADYEKHKVYACEVTHQGLSSPVTKSFNRGEC heavy 2: EVQLVQSGAEVKKPGSSVKVSCKASGYSFTSYYIHWVRQAPGQGLEWMGRIGPGSGDINYNEKFKGRATFTVDKSTSTAYMELSSLRSEDTAVYYCARFHYDGADWGQGTLVTVSSASTKGPSVFPLAPCSRSTSESTAALGCLVKDYFPEPVTVSWNSGALTSGVHTFPAVLQSSGLYSLSSVVTVPSSSLGTKTYTCNVDHKPSNTKVDKRVESKYGPPCPPCPAPEFLGGPSVFLFPPKPKDTLMISRTPEVTCVVVDVSQEDPEVQFNWYVDGVEVHNAKTKPREEQFNSTYRVVSVLTVLHQDWLNGKEYKCKVSNKGLPSSIEKTISKAKGQPREPQVYTLPPSQEEMTKNQVSLSCAVKGFYPSDIAVEWESNGQPENNYKTTPPVLDSDGSFFLVSRLTVDKSRWQEGNVFSCSVMHEALHNHYTQKSLSLSLGK light 2: DIQMTQSPSSLSASVGDRVTITCKASQNINENLDWYQQKPGKAPKLLIYYTDILQTGIPSRFSGSGSGTDYTLTISSLQPEDFATYYCYQYYSGYTFGQGTKLEIKRTVAAPSVFIFPPSDEQLKSGTASVVCLLNNFYPREAKVQWKVDNALQSGNSQESVTEQDSKDSTYSLSSTLTLSKADYEKHKVYACEVTHQGLSSPVTKSFNRGEC","IC50 (pM) Geomean, N = 2; STAT-6 reporter assay, HEK-Blue IL-4/IL13 cells; PB8919",Human IL13 [1],2.3 pM
same,"IC50 (pM), concatenated IC50 values; STAT-6 reporter assay; PB8919",Human IL13 [1],2 pM and 2.7 pM
same,"IC50 (M) Geomean; IL22-induced IL-10 release, COLO205 cells; PB8842 (N = 2)",Human IL22 [2],7.13e-11 M
same,"IC50 (read off the curve), inhibition of eotaxin-3 secretion, primary human keratinocytes stimulated with IL-13 and IL-22 at 100 ng/ml",Human IL13 [3],~0.8 nM
same,"IC50 (M) Geomean; IL22-induced IL-10 release, COLO205 cells; PB8919 (N = 2)",Human IL22 [4],5.73e-11 M
same,"IC50 (pM) Geomean, N = 2; STAT-6 reporter assay, HEK-Blue IL-4/IL13 cells; PB8842",Human IL13 [5],4.9 pM
same,"IC50 (pM), concatenated IC50 values; STAT-6 reporter assay; PB8842",Human IL13 [5],4.6 pM and 5.2 pM
"IL13K/IL22H knob in hole bispecific (bispecific antibody, human IgG4 S228P, kappa) heavy 1: not shown light 1: DIQMTQSPSSLSASVGDRVTITCKASQNINENLDWYQQKPGKAPKLLIYYTDILQTGIPSRFSGSGSGTDYTLTISSLQPEDFATYYCYQYYSGYTFGQGTKLEIKRTVAAPSVFIFPPSDEQLKSGTASVVCLLNNFYPREAKVQWKVDNALQSGNSQESVTEQDSKDSTYSLSSTLTLSKADYEKHKVYACEVTHQGLSSPVTKSFNRGEC heavy 2: EVQLVESGGGLVQPGGSLRLSCAVSGFSLSSYAMIWVRQAPGKGLEWIGIIDIEGSTYYASWAKGRFTISRDNSKNTVYLQMNSLRAEDTAVYYCARDRFVGVDIFDPWGQGTLVTVSSASTKGPSVFPLAPCSRSTSESTAALGCLVKDYFPEPVTVSWNSGALTSGVHTFPAVLQSSGLYSLSSVVTVPSSSLGTKTYTCNVDHKPSNTKVDKRVESKYGPPCPPCPAPEFLGGPSVFLFPPKPKDTLMISRTPEVTCVVVDVSQEDPEVQFNWYVDGVEVHNAKTKPREEQFNSTYRVVSVLTVLHQDWLNGKEYKCKVSNKGLPSSIEKTISKAKGQPREPQVYTLPPSQEEMTKNQVSLSCAVKGFYPSDIAVEWESNGQPENNYKTTPPVLDSDGSFFLVSRLTVDKSRWQEGNVFSCSVMHEALHNHYTQKSLSLSLGK light 2: AVQLTQSPSSLSASVGDRVTITCQASEDIYTNLAWYQQKPGKAPKLLIYWASTLASGVPSRFSGSGSGTDFTLTISSLQPEDFATYYCQASVYGNAADSRYTFGGGTKVEIKRTVAAPSVFIFPPSDEQLKSGTASVVCLLNNFYPREAKVQWKVDNALQSGNSQESVTEQDSKDSTYSLSSTLTLSKADYEKHKVYACEVTHQGLSSPVTKSFNRGEC","IC50 (read off the curve), inhibition of eotaxin-3 secretion, primary human keratinocytes stimulated with IL-13 and IL-22 at 100 ng/ml",Human IL13 [3],~5 nM
same,"IC50 (pM) Geomean, N = 2; STAT-6 reporter assay, HEK-Blue IL-4/IL13 cells; PB8841",Human IL13 [6],3.4 pM
same,"IC50 (M) Geomean; IL22-induced IL-10 release, COLO205 cells; PB8920 (N = 2)",Human IL22 [7],6.38e-11 M
same,"IC50 (pM) Geomean, N = 2; STAT-6 reporter assay, HEK-Blue IL-4/IL13 cells; PB8920",Human IL13 [8],2.9 pM
same,"IC50 (pM), concatenated IC50 values; STAT-6 reporter assay; PB8920",Human IL13 [8],2.1 pM and 4 pM
same,"IC50 (M) Geomean; IL22-induced IL-10 release, COLO205 cells; PB8841 (N = 2)",Human IL22 [9],6.59e-11 M
"11070gL1gH13 (Fab, V domains shown, V-regions only; also called 11070gL1gH1 S61T) VH: EVQLQESGPGLVKPSQTLSLTCTVSGFSLTSYSVHWVRQHSGKGLEWMGRMWSDGDTSYNTAFTSRLTISRDTSKSQVSLKLSSVTAADTAVYYCARSLDFYYDTTLAFWGQGTTVTVSS VL: DIVMTQSPSSVSASVGDRVTITCKASKTISKYLAWYQQKPGKANKLLIYSGSTLQSGTPSRFSGSGSSTDFTLTISSLQPEDFATYYCQQHNEYPLTFGQGTKLEIK",Kd,Human IL22 [10],0.0317 nM
"11070gL7gH16 Fab (Fab, V domains shown, also called VR11070) VH: EVQLQESGPGLVKPSQTLSLTCTVSGFSLTSYSVHWVRQHPGKGLEWIGRMWSDGDTSYNTAFTSRLTISRDTSKNQVSLKLSSVTAADTAVYYCARSLDFYYDTTLAFWGQGTTVTVSS VL: DIQMTQSPSSVSASVGDRVTITCKASKTISKYLAWYQQKPGKANKLLIYSGSTLQSGVPSRFSGSGSGTDFTLTISSLQPEDFATYYCQQHNEYPLTFGQGTKLEIKR",Kd,Human IL22 [10],0.0257 nM
"11070gL1gH1 (Fab, V domains shown, V-regions only) VH: EVQLQESGPGLVKPSQTLSLTCTVSGFSLTSYSVHWVRQHSGKGLEWMGRMWSDGDTSYNSAFTSRLTISRDTSKSQVSLKLSSVTAADTAVYYCARSLDFYYDTTLAFWGQGTTVTVSS VL: DIVMTQSPSSVSASVGDRVTITCKASKTISKYLAWYQQKPGKANKLLIYSGSTLQSGTPSRFSGSGSSTDFTLTISSLQPEDFATYYCQQHNEYPLTFGQGTKLEIK",Kd,Human IL22 [10],0.0368 nM
"11041gL13gH14 Fab (Fab, V domains shown, also called 11041gL6 C91S S96A gH5 D54E) VH: EVQLVESGGGLVQPGGSLRLSCAVSGFSLSSYAMIWVRQAPGKGLEWIGIIDIEGSTYYASWAKGRFTISRDNSKNTVYLQMNSLRAEDTAVYYCARDRFVGVDIFDPWGQGTLVTVSS VL: AVQLTQSPSSLSASVGDRVTITCQASEDIYTNLAWYQQKPGKAPKLLIYWASTLASGVPSRFSGSGSGTDFTLTISSLQPEDFATYYCQASVYGNAADSRYTFGGGTKVEIKR",Kd,Human IL22 [11],0.0125 nM
same,kon,Human IL22 [11],1.01e+06 M⁻¹ s⁻¹
same,Kd,Human IL22 [12],0.0125 nM
"11041gL1 C91S gH1 (Fab, V domains shown, V-regions only; also called 11041gL2gH1) VH: EVQLVESGGGLVQPGGSLRLSCAVSGFSLSSYAMIWVRQAPGKGLEWIGIIDIDGSTYYASWAKGRFTISRDSSKNTVYLQMNSLRAEDTAVYYCARDRFVGVDIFDPWGQGTLVTVSS VL: AVVLTQSPSSLSASVGDRVTITCQASEDIYTNLAWYQQKPGKAPKLLIYWASTLASGVPSRFSGSGSGTDFTLTISSLQPEDFATYYCQASVYGNSADSRYTFGGGTKVEIK",fold increase in binding affinity against 11041gL1gH1,Human IL22 [13],50 fold
same,Kd,Human IL22 [12],0.0124 nM
"11041gL1 C91V gH1 (Fab, V domains shown, V-regions only; also called 11041gL3gH1) VH: EVQLVESGGGLVQPGGSLRLSCAVSGFSLSSYAMIWVRQAPGKGLEWIGIIDIDGSTYYASWAKGRFTISRDSSKNTVYLQMNSLRAEDTAVYYCARDRFVGVDIFDPWGQGTLVTVSS VL: AVVLTQSPSSLSASVGDRVTITCQASEDIYTNLAWYQQKPGKAPKLLIYWASTLASGVPSRFSGSGSGTDFTLTISSLQPEDFATYYCQAVVYGNSADSRYTFGGGTKVEIK",fold increase in binding affinity against 11041gL1gH1,Human IL22 [13],15 fold
same,Kd,Human IL22 [12],0.0419 nM
"Rabbit 11041 Fab (Fab, V domains shown, Rabbit Fab) VH: QSVEESGGRLVTPGTPLTLTCTVSGFSLSSYAMIWVRQAPGEGLEWIGIIDIDGSTYYASWAKGRFTISRTSTTVDLKITSPTTGDTATYFCARDRFVGVDIFDPWGPGTLVTVSS VL: AVVLTQTASPVSAPVGGTVTIKCQASEDIYTNLAWYQQKPGQPPKLLIYWASTLASGVPSRFKGSGSGTEFTLTISDLECADAATYYCQACVYGNSADSRYTFGGGTEVVVK",Kd,Mouse IL22,3 nM
same,koff,Mouse IL22,0.11 s⁻¹
same,kon,Mouse IL22,3.7e+07 M⁻¹ s⁻¹
same,Kd,Human IL22 [14],0.34 nM
same,koff,Human IL22 [14],0.00029 s⁻¹
same,kon,Human IL22 [14],870000 M⁻¹ s⁻¹
same,Kd,Cynomolgus IL22,1.1 nM
same,koff,Cynomolgus IL22,0.00028 s⁻¹
same,kon,Cynomolgus IL22,260000 M⁻¹ s⁻¹
"11041 (parental) (Fab, V domains shown) VH: QSVEESGGRLVTPGTPLTLTCTVSGFSLSSYAMIWVRQAPGEGLEWIGIIDIDGSTYYASWAKGRFTISRTSTTVDLKITSPTTGDTATYFCARDRFVGVDIFDPWGPGTLVTVSS VL: AVVLTQTASPVSAPVGGTVTIKCQASEDIYTNLAWYQQKPGQPPKLLIYWASTLASGVPSRFKGSGSGTEFTLTISDLECADAATYYCQACVYGNSADSRYTFGGGTEVVVK",Kd,Human IL22 [15],0.569 nM
